Data taken from article PMC6368630.

Legend:
Assay in all cases: BRET (mG protein recruitment) in HEK293 cells
[1] = target: Venus-tagged mGsi; settings: mean ± s.e.m., read off a plot
[2] = target: Venus-tagged mGs; settings: highest WNT-5A concentration shown (about log 2.5-3 ng/ml); n = 8; mean ± s.e.m.; parent: est. 100.1; read off a plot
[3] = target: Venus-tagged mG13; settings: n = 6, mean ± s.e.m., read off a plot
[4] = target: Venus-tagged mGsq; settings: highest WNT-5A concentration shown (about log 3 ng/ml); n = 5; mean ± s.e.m.; parent: est. 101; read off a plot

SNAP-FZD6-Rluc8 (from UniProt O60353) R416A
response ([1]; highest WNT-5A concentration shown (about log 3.5 ng/ml), wild type n = 7, R416A n = 6, parent: est. 104): 109 % of vehicle

SNAP-FZD7-Rluc8 (from UniProt O75084) R470A
response [2]: 102 % of vehicle

hFZD4-Nluc (from UniProt Q9ULV1) K436A
response ([3]; highest WNT-5A concentration shown (about log 3-3.5 ng/ml), parent: est. 105.5): 106 % of vehicle
response ([3]; second-highest WNT-5A concentration shown (about log 2.5 ng/ml), parent: est. 100.0): 103 % of vehicle

mouse SMO-Rluc8 (from UniProt P56726) R455A
response ([1]; SAG alone, at the peak of the bell-shaped curve (about log -9.5 M), n = 6, parent: est. 100.9): 102 % of vehicle

SNAP-FZD5-Rluc8 (from UniProt Q13467) R449A
response [4]: 103 % of vehicle
